Experimental data: patent US20220048996A1 (F STAR BETA, published 2022)

Key:
[1] = biological target: T1, human OX40 expressed on DO11.10 cells (DO11.10-hOX40) (human, UniProt P43489 29-277); experiment: flow cytometry on DO11.10 cells expressing the target, mean ± SD of three experiments
T1 construct: Also used here for OX40 on primary human T cells in the functional rows; also called human OX40 receptor; OX40 on human T cells
T1 sequence: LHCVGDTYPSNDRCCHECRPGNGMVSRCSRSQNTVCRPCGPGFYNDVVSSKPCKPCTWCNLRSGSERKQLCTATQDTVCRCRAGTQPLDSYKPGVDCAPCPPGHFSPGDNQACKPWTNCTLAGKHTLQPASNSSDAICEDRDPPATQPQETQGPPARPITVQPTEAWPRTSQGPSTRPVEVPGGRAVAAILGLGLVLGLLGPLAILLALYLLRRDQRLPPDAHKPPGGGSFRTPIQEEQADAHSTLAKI
Procedure: 50 μl of the antibody dilutions were added to the wells containing cells (final volume 100 μl) and incubated at 4° C. for 1 hour. […] The plates were washed and resuspended in 100 μl of PBS containing DAPI (Biotium, cat no 40043) at 1 μg/ml. The plates were analysed using a Canto II flow cytometer (BD Bioscience) and the data analysed using FlowJo. Dead cells were identified by their higher fluorescence on the UV (405 nm/450/50) channel and excluded from analysis. […] The GMFI data was fit using log (agonist) vs response (three parameters) in Graph Pad Prism Software to generate EC₅₀ values.
However, in this experiment, instead of using HEK cells to analyse the non-specific binding, non-transduced DO11.10 cells were used. […] The experiment was repeated three times to increase the reliability of the EC₅₀ values calculated.

[2] = biological target: human CD137 expressed on DO11.10 cells (DO11.10-hCD137) (human, UniProt Q07011 24-255); experiment: cell-based or functional assay
[3] = biological target: T2, hFcγR2b (R&D Systems 1460-CD-050/CF) (human, UniProt P31994 46-217, limits assumed); experiment: SPR, antibody 100 nM on CD137-his chip co-injected with FcγR 500 nM
T2 construct: Bought; also called FcγRIIb
T2 sequence (looked up): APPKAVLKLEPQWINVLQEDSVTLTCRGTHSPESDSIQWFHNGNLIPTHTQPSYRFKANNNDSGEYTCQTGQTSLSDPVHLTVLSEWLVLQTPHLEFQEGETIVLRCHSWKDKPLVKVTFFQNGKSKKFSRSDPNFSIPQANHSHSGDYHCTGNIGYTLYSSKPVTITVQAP
Procedure: (§1) Binding was tested on a Biacore 3000 instrument (GE Healthcare). Human OX40 (BPS Bioscience cat no 71310) and human CD137 (produced in house) biotinylated his-tagged antigens were coated onto an SA chip (GE Healthcare cat no BR100398) at 2 μM concentration. Human OX40 and human CD137 were coated on separate flow cells, while another flow cell was left blank for background subtraction. Regeneration conditions were determined to be 12 μl aqueous 10 mM glycine-HCl at pH2.0 at 20 μl/min flow rate. Antibodies (see Table 8) and human FcγRs (see Table 8) were diluted to 100 nM (antibodies) or 500 nM (human FcγRs) in HBS-P (0.01 M HEPES pH 7.4, 0.15 M NaCl, 0.005% v/v Surfactant P20, GE Healthcare, BR-1003-68) and co-injected at 20 μl/min flow rate and the dissociation was followed for 5 min.
(§2) Data analysis was performed with BiaEvaluation software version 3.2 RC1 by referencing against the blank flow cell and aligning the curves after the association of the antibody. Values for binding response at the end of the association phase were generated by subtracting the […] to normalize the effect of the antibody binding to the OX40 and CD137 receptors.

[4] = biological target: T3, hFcγR1 (R&D Systems 1257-FC-050/CF) (human, UniProt P12314 16-288); experiment: as above
T3 construct: Bought; also called FcγRI
Procedure: as §1, §2

[5] = biological target: T4, hFcγR3a (R&D Systems 4325-FC-050/CF) (human, UniProt P08637 17-208); experiment: as above
T4 construct: Bought; In the ADCC bioassay FcγRIIIa stood on engineered Jurkat cells; also called FcγRIIIa
Procedure: as §1, §2

[6] = biological target: T5, hFcγR2a (R&D Systems 1330-CD-050/CF) (human, UniProt P12318 36-218, limits assumed); experiment: as above
T5 construct: Bought; also called FcγRIIa
T5 sequence (looked up): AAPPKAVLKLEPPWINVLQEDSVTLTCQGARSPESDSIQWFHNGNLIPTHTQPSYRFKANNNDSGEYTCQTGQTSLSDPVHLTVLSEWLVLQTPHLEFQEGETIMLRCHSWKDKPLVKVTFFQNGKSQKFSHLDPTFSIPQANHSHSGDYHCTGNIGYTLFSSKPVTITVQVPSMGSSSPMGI
Procedure: as §1, §2

[7] = biological target: T2, hFcγR2b (R&D Systems 1460-CD-050/CF); experiment: SPR, antibody 100 nM on OX40-his chip co-injected with FcγR 500 nM
Procedure: as §1, §2

[8] = biological target: T3, hFcγR1 (R&D Systems 1257-FC-050/CF); experiment: as above
Procedure: as §1, §2

[9] = biological target: T4, hFcγR3a (R&D Systems 4325-FC-050/CF); experiment: as above
Procedure: as §1, §2

[10] = biological target: T5, hFcγR2a (R&D Systems 1330-CD-050/CF); experiment: as above
Procedure: as §1, §2

T3 sequence (P12314 16-288 limits assumed): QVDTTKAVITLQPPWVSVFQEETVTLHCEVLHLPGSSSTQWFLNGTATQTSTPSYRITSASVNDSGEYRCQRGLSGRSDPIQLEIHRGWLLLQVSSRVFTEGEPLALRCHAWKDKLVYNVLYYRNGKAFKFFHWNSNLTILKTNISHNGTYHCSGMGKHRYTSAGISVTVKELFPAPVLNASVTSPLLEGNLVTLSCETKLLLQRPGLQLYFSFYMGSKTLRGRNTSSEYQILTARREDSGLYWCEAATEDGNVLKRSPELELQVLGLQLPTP
T4 sequence (P08637 17-208 limits assumed): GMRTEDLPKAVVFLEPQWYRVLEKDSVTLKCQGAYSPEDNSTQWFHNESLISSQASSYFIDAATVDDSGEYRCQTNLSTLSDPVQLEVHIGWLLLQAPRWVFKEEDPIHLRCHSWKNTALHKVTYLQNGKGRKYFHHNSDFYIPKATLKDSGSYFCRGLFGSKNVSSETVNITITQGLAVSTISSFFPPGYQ
Sequence of human CD137 expressed on DO11.10 cells (DO11.10-hCD137) (Q07011 24-255): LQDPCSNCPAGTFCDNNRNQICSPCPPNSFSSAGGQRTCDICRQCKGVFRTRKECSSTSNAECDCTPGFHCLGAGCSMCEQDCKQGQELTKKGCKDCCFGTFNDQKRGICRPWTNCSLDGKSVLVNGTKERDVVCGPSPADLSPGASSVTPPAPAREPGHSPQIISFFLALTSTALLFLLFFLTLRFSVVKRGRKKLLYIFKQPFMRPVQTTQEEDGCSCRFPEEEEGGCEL

- EC50 [1]: 0.22 nM
- EC50 of mIL-2 release, DO11.10-hCD137 assay, crosslinked [2]: 4.7 nM
- Emax of mIL-2 release, DO11.10-hCD137 assay, crosslinked [2]: 16300 pg/mL
- binding response at end of association phase of FcγR [3]: 9 RU
- binding response at end of association phase of FcγR [4]: 246 RU
- decrease of binding response at end of dissociation phase of FcγR [4]: 367 RU
- binding response at end of association phase of FcγR [5]: 17.3 RU
- binding response at end of association phase of FcγR [6]: 10.9 RU
- binding response at end of association phase of FcγR [7]: 34.3 RU
- binding response at end of association phase of FcγR [8]: 238 RU
- binding response at end of association phase of FcγR [9]: 31.4 RU
- binding response at end of association phase of FcγR [10]: 37.4 RU
B1: FS20-22-49AA/FS30-10-16 (bispecific antibody, human IgG1, kappa, L234A L235A)
heavy: EVQLLESGGGLVQPGGSLRLSCAASGFTFSSYDMSWVRQAPGKGLEWVSDIDPTGSKTDYADSVKGRFTISRDNSKNTLYLQMNSLRAEDTAVYYCARDLLVYGFDYWGQGTLVTVSSASTKGPSVFPLAPSSKSTSGGTAALGCLVKDYFPEPVTVSWNSGALTSGVHTFPAVLQSSGLYSLSSVVTVPSSSLGTQTYICNVNHKPSNTKVDKKVEPKSCDKTHTCPPCPAPEAAGGPSVFLFPPKPKDTLMISRTPEVTCVVVDVSHEDPEVKFNWYVDGVEVHNAKTKPREEQYNSTYRVVSVLTVLHQDWLNGKEYKCKVSNKALPAPIEKTISKAKGQPREPQVYTLPPSRDEYWDQEVSLTCLVKGFYPSDIAVEWESNGDEQFAYKTTPPVLDSDGSFFLYSKLTVDQYRWNPADYFSCSVMHEALHNHYTQKSLSLSPG
light: EIVLTQSPGTLSLSPGERATLSCRASQSVSSSYLAWYQQKPGQAPRLLIYGASSRATGIPDRFSGSGSGTDFTLTISRLEPEDFAVYYCQQSYSYPVTFGQGTKVEIKRTVAAPSVFIFPPSDEQLKSGTASVVCLLNNFYPREAKVQWKVDNALQSGNSQESVTEQDSKDSTYSLSSTLTLSKADYEKHKVYACEVTHQGLSSPVTKSFNRGEC
notes: IgG1 with LALA; also called OX40/CD137 mAb^2; copies: 2 + 2
